Measurements reported in publication PMC5565208.
Like-named read-outs stand apart in the source and are kept apart here.

Assays:
[1] = test system: BifR (Burkholderia thailandensis E264); assay: EMSA
[2] = test system: BifR (Burkholderia thailandensis E264); assay: EMSA; remark: listed apart in the source
[3] = target: BifR (biofilm regulator), MarR homologue from Burkholderia thailandensis E264 (Burkholderia thailandensis E264); assay: cross-linking
[4] = target: BifR (biofilm regulator), MarR homologue from Burkholderia thailandensis E264 (Burkholderia thailandensis E264); assay: SEC
[5] = target: BifR (biofilm regulator), MarR homologue from Burkholderia thailandensis E264 (Burkholderia thailandensis E264); assay: SEC; remark: listed apart in the source

stoichiometry N [3]	stoichiometry N [4]	stoichiometry N [5]	Substance	Kd [1]	Kd [2]
			355 bp ecsC-emrB operator DNA	0.9 nM	1.4 nM
2	2	4	BifR (biofilm regulator), MarR homologue from Burkholderia thailandensis E264 (natural protein)		
